Read-outs that look alike come from different tables or passages of the source.
How the values were obtained:
[1] = molecular target: T1, Androgen receptor DNA binding domain (GST-ARDBD) (UniProt P10275 P10275:560-632); experiment: FP; labelled probe, 1 nM with 50 nM GST-ARDBD; conditions: tags: GST fusion; chain copies: 2; label: 5'-FAM on top strand
[2] = molecular target: T1, Androgen receptor DNA binding domain …; conditions: tags: GST fusion; chain copies: 2
[3] = molecular target: T1, Androgen receptor DNA binding domain …; experiment: FP; scrambled control, competition with FAM-ARE; conditions: tags: GST fusion; chain copies: 2
[4] = molecular target: T1, Androgen receptor DNA binding domain …; experiment: FP; scrambled MPS control, competition with FAM-ARE; conditions: tags: GST fusion; chain copies: 2
[5] = molecular target: T1, Androgen receptor DNA binding domain …; experiment: FP; competition with 1 nM FAM-ARE, 50 nM GST-ARDBD; room temperature; conditions: tags: GST fusion; chain copies: 2

T1 sequence (P10275 560-632, one chain of several): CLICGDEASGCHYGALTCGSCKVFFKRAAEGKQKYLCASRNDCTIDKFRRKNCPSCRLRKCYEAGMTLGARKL

B1: FAM-ARE duplex (dsDNA)
DNA 1: AGTCTGGTACAGGGTGTTCTTTTTA
DNA 2: TAAAAAGAACACCCTGTACCAGACT
**Q.** Does B1 bind [1]?
**A.** binds

B2: ARE duplex (dsDNA)
DNA 1: AGTCTGGTACAGGGTGTTCTTTTTA
DNA 2: TAAAAAGAACACCCTGTACCAGACT
**Q.** Does B2 bind [2]?
**A.** binds

B3: AREsc scrambled (dsDNA)
DNA 1: AGTCTACGAGTGGGGTTCTTTTTTA
DNA 2: TAAAAAAGAACCCCACTCGTAGACT
**Q.** Does B3 bind [3]?
**A.** no binding

B4: AREsc-MPS scrambled (dsDNA)
DNA 1: AGTCTACGAGTGGGGTTCTTTTTTA
DNA 2: TAAAAAAGAACCCCACTCGTAGACT
modifications: membrane permeable peptide Ac-…-NH2 conjugate
**Q.** Does B4 bind [4]?
**A.** no binding

B5: ARE-MPS duplex (dsDNA)
DNA 1: AGTCTGGTACAGGGTGTTCTTTTTA
DNA 2: TAAAAAGAACACCCTGTACCAGACT
modifications: membrane permeable peptide Ac-…-NH2 conjugated at 5' of top strand
**Q.** Does B5 bind [5]?
**A.** binds

Source: patent publication US20030224992A1, “Transcription factor modulators and uses thereof” (Praecis Pharmaceuticals Inc., priority 2002, published 2003)
